“And” between values parts separate entries of the source, which are not always exact repeats. Equal entries are not always repeated.

The values that follow come from PMC11549089.

The assay concerns the target influenza A virus RNA polymerase (FluAPol) heterotrimer of human influenza A/NT/60/1968 (H3N2) (human influenza A/NT/60/1968 (H3N2) virus) (UniProt P03429). As to the kind of experiment: cryo-EM structure.

As usually defined, the stoichiometry N is the number of molecules, sites or subunits per partner or assembly. In the case of “influenza A virus RNA polymerase (FluAPol) heterotrimer of human influenza A/NT/60/1968 (H3N2) (from UniProt P03429) (complex)”, the stoichiometry N was 2 and 6.
